According to US20100310573A1 (Kyowa Kirin, published 2010):
Where a chain is given by its changes, count along the chain named.

B1: anti-CD4 humanized antibody HV3LV0 (antibody, V domains shown)
VH: EVQLVESGGGLVQPGRSLRLSCAASGFTFSNYGMAWVRQAPGKGLEWVATISYDGSITYYRDSVKGRFTISRDNSKNTLYLQMNSLRAEDTATYYCTREEQYSSWYFDFWGQGILVTVSS
VL: DIQLTQSPSSLSASVGDRVTITCRASQSVSISSHDLMQWYQQKPGKAPKLLIYDAFNLASGVPSRFSGSGSGTDFTLTISSLQPEDFATYYCQQSKDDPYTFGQGTKLEIK
notes: Expressed from the humanized antibody expression vector pKANTEX93
B2: anti-CD4 humanized antibody HV2LV0 (antibody, V domains shown)
VH: B1 VH with T93V
VL: B1 VL
notes: Expressed from the humanized antibody expression vector pKANTEX93; also called KM8045; humanized antibody KM8045
B3: anti-CD4 humanized antibody HV0LV0 (antibody, V domains shown)
VH: B1 VH with T93V, T97A, I114T
VL: B1 VL
notes: CDRs of KM4065 grafted into human framework regions; Expressed from the humanized antibody expression vector pKANTEX93
B4: anti-CD4 humanized antibody HV4LV6 (antibody, V domains shown)
VH: B1 VH with L18M
VL: B1 VL with A13V, V15L, V19A, A47Q, V62I, L82V
notes: as for B1
B5: anti-CD4 humanized antibody HV4LV0 (antibody, V domains shown)
VH: B1 VH with L18M
VL: B1 VL
notes: as for B1
B6: anti-CD4 human antibody 6G5-1 (antibody, V domains shown)
VH: QVQLQQWGAGLLKPSETLSLTCAVYGGSFSGYYWSWIRQPPGKGLEWIGEINHSGSTNYNPSLKSRVTISVDTSKNQFSLKLSSVTAADTAVYYCARVINWFDPWGQGTLVTVSS
VL: DIQMTQSPSSVSASVGDRVTITCRASQDISSWLAWYQHKPGKAPKLLIYAASSLQSGVPSRFSGSGSGTDFTLTISSLQPEDFATYYCQQANSFPYTFGQGTKLEIKR
B7: anti-CD4 rat monoclonal antibody KM4068 (antibody, V domains shown)
VH: QVQLKESGPGLVQPSQTLSLTCTVSGLSLTSNSVSWIRQPPGKGLEWMGIIWSNGDTDYNSAIKSRLSISRDTSKSQVFLKMNSLQTEDTAMYFCANPYYGYNFPFDYWGQGVMVTVSS
VL: DIQMTQSPASLSASLEEIVTITCKASQGIDNYLSWYQQKPGKSPQLLIYDATSLADGVPSRFSGSRSGTQYSLKISRPQVDDSGIYYCLQSYSTPFTFGSGTKLEIK
notes: Rat hybridoma IgG with a kappa light chain
B8: anti-CD4 rat monoclonal antibody KM4069 (antibody, V domains shown)
VH: B7 VH with L27S, I50V, T57A, N97S, N103Y
VL: B7 VL with G28A, N31A
notes: as for B7
B9: anti-CD4 rat monoclonal antibody KM4065 (antibody, V domains shown)
VH: B1 VH with L18M, R19K, G42T, N74H, S75A, N77S, A88S, Q112P, L115M
VL: DIVLTQSPALAVSLGQRATISCRASQSVSISSHDLMQWYQQKPGQQPKLLIYDAFNLASGIPVRFSGSGSGTDFTLTIDPVQADDIATYYCQQSKDDPYTFGAGTKLELK
notes: as for B7
B10: anti-CD4 rat monoclonal antibody KM4066 (antibody, V domains shown)
VH: EVQLEESGGGLVQPGRSLKLSCLASGFTFSNYGMNWIRQAPGKGLEWVASISGSSTYIYYADTVKGRFTISRENAENTLYLQMTSLRSEDTALYYCAREGSSTDRYYEVSFAYWGQGTLVTVSS
VL: DVVLTQTPVSLSVTLGDQASISCRSSQSLEYSDGYTYLEWYLQKPGQSPQVLIYGVSNRFSGVPDRFIGSGSGTDFTLKISRVEPEDLGVYYCFQATHDPYTFGAGTRLELK
notes: as for B7
B11: anti-CD4 rat monoclonal antibody KM4067 (antibody, V domains shown)
VH: QVKLLQSGAALVKPGASVKMSCKASGYTFTDYWVHWVKQSHGKSLEWIGEIYPNNNTTNFNEKFKGKATLTVDKFTSTAYMELSRLTSEDSAIYYCTRGTVYYGLGYFDHWGQGVMVTVSS
VL: DIRMTQSPASLSASLGETVNIECLASEDVYSDLAWYQQKPGKSPQLLIYNANNLQSGVPSRFSGSGSGTRYSLKINSLQSEDVATYFCQQYNNYPPYTFGAGTKLELK
notes: as for B7
B12: anti-CD4 chimeric antibody KM4048 (antibody, V domains shown)
VH: B7 VH
VL: B7 VL
notes: Variable regions of rat KM4068 joined to the '113F type' human IgG1/IgG3 heavy chain constant region (US2007/0148165) and a human kappa constant region; Expressed in FUT8 knockout CHO cells (0% fucose)
B13: anti-CD4 chimeric antibody KM4049 (antibody, V domains shown)
VH: B7 VH with L27S, I50V, T57A, N97S, N103Y
VL: B7 VL with G28A, N31A
notes: Variable regions of rat KM4069 joined to the '113F type' human IgG1/IgG3 heavy chain constant region (US2007/0148165) and a human kappa constant region; Expressed in FUT8 knockout CHO cells (0% fucose)
B14: anti-CD4 chimeric antibody KM4046 (antibody, V domains shown)
VH: B10 VH
VL: B10 VL
notes: Variable regions of rat KM4066 joined to the '113F type' human IgG1/IgG3 heavy chain constant region (US2007/0148165) and a human kappa constant region; Expressed in FUT8 knockout CHO cells (0% fucose)
B15: anti-CD4 chimeric antibody KM4047 (antibody, V domains shown)
VH: B11 VH
VL: B11 VL
notes: Variable regions of rat KM4067 joined to the '113F type' human IgG1/IgG3 heavy chain constant region (US2007/0148165) and a human kappa constant region; Expressed in FUT8 knockout CHO cells (0% fucose)

Biological target: T1, recombinant human CD4 (catalogue number: 514-CD/CF, manufactured by R&D Systems) (human, UniProt P01730 26-390)
T1 construct: Bought protein (R&D Systems); also called recombinant CD4
Experiment: SPR, Biacore T100; summary sentence to Table 6

For B1, which Kd is on record?
Its Kd is at most 0.1 nM.

B2 was tested. Which Kd did it give?
Its Kd is at most 0.1 nM.

B3 was tested. Which Kd did it give?
Its Kd is at most 0.1 nM.

B4 was tested. Which Kd did it give?
The Kd was at most 0.1 nM.

How did the Kd turn out when B5 was run?
Its Kd is at most 0.1 nM.

Biological target: T1, recombinant human CD4 (catalogue …)
Experiment: SPR, Biacore T100; antibody captured on anti-human IgG chip, recombinant human CD4 flowed; 1:1 binding model
Method: (§1) In order to kinetically analyze the binding activity of anti-CD4 chimeric antibodies KM4045 to KM4049, 6G5-1 and 6G5-P to recombinant human CD4, the binding activity was measured by surface plasmon resonance method (SPR). All of the following manipulations were carried out using a Biacore T100 (manufactured by GE Healthcare Bio-Sciences). The anti-human IgG antibody was immobilized on a CM5 sensor chip (manufactured by GE Healthcare Bio-Sciences) by an amine coupling method using a Human Antibody Capture Kit (manufactured by GE Healthcare Bio-Sciences) in accordance with the protocols attached thereto. An assay sample (anti-CD4 chimeric antibodies KM4045 to KM4049) was added to be captured on the anti-human IgG antibody-immobilized chip to give 100 RU (resonance unit). Thereafter, the recombinant human CD4 (manufactured by R&D) diluted from 2500 ng/mL in five steps was allowed to run at a flow rate of 30 μL/min onto the chip, and the sensorgram corresponding to each concentration was obtained. The analysis was carried out in the 1:1 binding model using an analysis software attached to the apparatus, Biacore T100 Evaluation software (manufactured by Biacore), thereby calculating an association rate constant ka and a dissociation rate constant kd of respective antibodies for human CD4.
The measurement of a binding activity was carried out according to the method described in Example 7(2). The association rate constant ka, the dissociation rate constant kd and the dissociation constant KD (kd/ka) of respective antibodies thus obtained are shown in Table 6.

With B1 as the binder, how does the Kd read?
Its Kd is under 0.00752 nM.

And the koff?
Its koff is under 1e-05 s⁻¹.

And the kon?
Its kon is 1.33e+06 M⁻¹ s⁻¹.

Which results are given for B2?
Kd: < 0.00877 nM; koff: < 1e-05 s⁻¹; kon: 1.14e+06 M⁻¹ s⁻¹

B3 was tested. Which Kd did it give?
The Kd was 0.0195 nM.

What about the koff of the same binder?
Its koff is 2.86e-05 s⁻¹.

And the kon?
The kon was 1.47e+06 M⁻¹ s⁻¹.

What does the source list for B4?
Kd: < 0.0248 nM; koff: < 1e-05 s⁻¹; kon: 403000 M⁻¹ s⁻¹

B5 was tested. Which Kd did it give?
Its Kd is under 0.0126 nM.

What about the koff of the same binder?
The koff was under 1e-05 s⁻¹.

What about the kon of the same binder?
The kon was 791000 M⁻¹ s⁻¹.

For B6, which Kd is on record?
The Kd was 1.54 nM.

What about the koff of the same binder?
Its koff is 0.000824 s⁻¹.

And the kon?
The kon was 534000 M⁻¹ s⁻¹.

Biological target: T1, recombinant human CD4 (catalogue …)
Experiment: Biacore T100

How did the “binding activity relative to the anti-CD4 chimeric antibody KM4045” value turn out when B1 was run?
The value was 0.5 fold of KM4045.

B2 was tested. Which “binding activity relative to the anti-CD4 chimeric antibody KM4045” value did it give?
The value was 0.5 fold of KM4045.

Which “binding activity relative to the anti-CD4 chimeric antibody KM4045” value does the source give for B4 here?
The value was 0.5 fold of KM4045.

With B5 as the binder, how does the “binding activity relative to the anti-CD4 chimeric antibody KM4045” value read?
Its value is 0.5 fold of KM4045.

Biological target: T1, recombinant human CD4 (catalogue …)
Experiment: SPR, Biacore T100; antibody captured on anti-mouse IgG chip, recombinant human CD4 flowed; 1:1 binding model
Method: In order to kinetically analyze the binding activity of anti-CD4 rat monoclonal antibodies KM4065 to KM4069 and commercially available anti-human CD4 mouse antibody for recombinant human CD4, the binding activity was measured by surface plasmon resonance method (SPR). All of the following manipulations were carried out using the Biacore T100 (manufactured by GE Healthcare Bio-Sciences). The anti-mouse IgG antibody was immobilized on a CM5 sensor chip (manufactured by GE Healthcare Bio-Sciences) by an amine coupling method using a Mouse Antibody Capture Kit (manufactured by GE Healthcare Bio-Sciences) in accordance with the protocols attached thereto. Anti-CD4 rat monoclonal antibodies KM4065 to KM4069, Leu-3a (BD Biosciences), OKT4 (BioLegend) and 13B8.2 (Beckman Coulter) were added to be captured on the anti-mouse IgG antibody-immobilized chip to give 100 RU (resonance unit), respectively. Thereafter, the recombinant human CD4 (manufactured by R&D) diluted from 2500 ng/mL in five steps was allowed to run at a flow rate of 30 μL/min onto the chip, and the sensorgram corresponding to each concentration was obtained. The analysis was carried out in the 1:1 binding model using an analysis software attached to the apparatus, thereby calculating an association rate constant ka and a dissociation rate constant kd of individual antibodies for the human CD4.
As a result, an association rate constant (hereinafter, referred to as “ka”), a dissociation rate constant (hereinafter, referred to as “kd”) and a dissociation constant KD (kd/ka) of individual antibodies thus obtained are given in Table 2.

What does the source list for B7?
Kd: 1.1 nM; koff: 0.00204 s⁻¹; kon: 1.85e+06 M⁻¹ s⁻¹

B8 was tested. Which Kd did it give?
Its Kd is 0.482 nM.

What about the koff of the same binder?
Its koff is 0.000584 s⁻¹.

And the kon?
The kon was 1.21e+06 M⁻¹ s⁻¹.

With B9 as the binder, how does the Kd read?
Its Kd is 0.00426 nM.

And the koff?
The koff was 1.52e-06 s⁻¹.

What about the kon of the same binder?
Its kon is 357000 M⁻¹ s⁻¹.

How did the Kd turn out when B10 was run?
The Kd was 0.0882 nM.

And the koff?
Its koff is 0.000118 s⁻¹.

What about the kon of the same binder?
Its kon is 1.34e+06 M⁻¹ s⁻¹.

Which Kd does the source give for B11 here?
The Kd was 0.541 nM.

And the koff?
The koff was 0.000473 s⁻¹.

What about the kon of the same binder?
The kon was 875000 M⁻¹ s⁻¹.

Biological target: T1, recombinant human CD4 (catalogue …)
Experiment: SPR, Biacore T100; antibody captured on anti-human IgG chip, recombinant human CD4 flowed; 1:1 binding model
Remark: another data set of the same source
Method: as §1
As a result, an association rate constant ka, a dissociation rate constant kd, and a dissociation constant KD (kd/ka) of individual antibodies thus obtained are given in Table 5.

Which results are given for B12?
Kd: 0.651 nM; koff: 0.00381 s⁻¹; kon: 5.85e+06 M⁻¹ s⁻¹

B13 was tested. Which Kd did it give?
Its Kd is 0.2 nM.

What about the koff of the same binder?
Its koff is 0.00116 s⁻¹.

And the kon?
Its kon is 5.77e+06 M⁻¹ s⁻¹.

With B14 as the binder, how does the Kd read?
Its Kd is 0.0614 nM.

What about the koff of the same binder?
The koff was 5.12e-05 s⁻¹.

What about the kon of the same binder?
The kon was 834000 M⁻¹ s⁻¹.

Which results are given for B15?
Kd: 0.369 nM; koff: 0.000488 s⁻¹; kon: 1.33e+06 M⁻¹ s⁻¹

With B6 as the binder, how does the Kd read?
Its Kd is 1.46 nM.

And the koff?
Its koff is 0.000872 s⁻¹.

And the kon?
The kon was 595000 M⁻¹ s⁻¹.
